These results are taken from PMC10462622 (Nature Communications, 2023).

Assay [1] concerns the target T1, near-full-length human CUL5 (residues 12-780) (human, UniProt Q93034 12-780).
T1 construct: not shown: GB1, N-terminal, cleaved
T1 sequence: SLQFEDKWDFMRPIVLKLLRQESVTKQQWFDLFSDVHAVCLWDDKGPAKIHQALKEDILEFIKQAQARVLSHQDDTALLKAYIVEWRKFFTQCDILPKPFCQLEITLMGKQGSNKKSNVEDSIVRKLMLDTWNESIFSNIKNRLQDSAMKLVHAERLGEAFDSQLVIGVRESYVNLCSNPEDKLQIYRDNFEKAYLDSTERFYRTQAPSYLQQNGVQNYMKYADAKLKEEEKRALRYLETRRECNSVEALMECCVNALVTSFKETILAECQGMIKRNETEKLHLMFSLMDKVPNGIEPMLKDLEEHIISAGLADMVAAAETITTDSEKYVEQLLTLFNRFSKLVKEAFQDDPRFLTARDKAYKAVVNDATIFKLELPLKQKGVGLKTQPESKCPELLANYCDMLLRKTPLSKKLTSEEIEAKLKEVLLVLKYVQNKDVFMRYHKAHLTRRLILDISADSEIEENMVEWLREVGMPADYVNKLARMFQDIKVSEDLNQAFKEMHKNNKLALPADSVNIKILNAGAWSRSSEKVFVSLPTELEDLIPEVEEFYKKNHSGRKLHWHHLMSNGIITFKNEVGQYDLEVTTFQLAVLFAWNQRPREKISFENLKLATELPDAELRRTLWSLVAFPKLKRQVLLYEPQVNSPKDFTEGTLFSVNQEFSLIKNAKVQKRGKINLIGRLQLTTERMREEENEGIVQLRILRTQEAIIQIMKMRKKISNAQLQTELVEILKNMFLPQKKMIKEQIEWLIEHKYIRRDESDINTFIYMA
Briefly: cryo-EM structure. As to conditions: both partners purified.

In assay [2] the target is T2, HIV-1 NL4-3 Vif N48H (residues 1-176) (HIV-1 (pNL4-3), UniProt P12504 1-176, N48H).
T2 construct: also called N48H Vif; N48H NL4-3 Vif
Nature of the assay: cryo-EM structure. As to conditions: both partners purified.

B1: human RBX2 (residues 1-113) (natural protein)
chain: MADVEDGEETCALASHSGSSGSKSGGDKMFSLKKWNAVAMWSWDVECDTCAICRVQVMDACLRCQAENKQEDCVVVWGECNHSFHNCCMSLWVKQNNRCPLCQQDWVVQRIGK
notes: also called RING-box protein 2; source: E. coli BL21(DE3), co-expressed with GB1-CUL5 (pETDuet-1), purified as CUL5/RBX2 complex (Ni-NTA, SEC)
B1: the binding result in assay [1] is on record as “binds”.

B2: human CBF-β (residues 1-156) (domain or fragment)
chain: MPRVVPDQRSKFENEEFFRKLSRECEIKYTGFRDRPHEERQARFQNACRDGRSEIAFVATGTNLSLQFFPASWQGEQRQTPSREYVDLEREAGKVYLKAPMILNGVCVIWKGWIDLQRLDGMGCLEFDEERAQQEDALAQQAFEEARRRTREFEDR
Take B2: the binding result in assay [2] is on record as “binds”.
